This note sets out measurements from patent US20210388087A1 (Chugai, published 2021).

To fix the notation:
B1: CE115HA000 N31Y (antibody, human IgG1, kappa, L234A L235A, N297A, name in Kabat numbering)
heavy: QVQLVESGGGVVQPGRSLRLSCAASGFTFSYAWMHWVRQAPGKGLEWVAQIKAKSNNYATYYAESVKGRFTISRDDSKNSLYLQMNSLKTEDTAVYYCRYVHYGAYYGVDAWGQGTTVTVSSASTKGPSVFPLAPSSKSTSGGTAALGCLVKDYFPEPVTVSWNSGALTSGVHTFPAVLQSSGLYSLSSVVTVPSSSLGTQTYICNVNHKPSNTKVDKKVEPKSCDKTHTCPPCPAPEAAGGPSVFLFPPKPKDTLMISRTPEVTCVVVDVSHEDPEVKFNWYVDGVEVHNAKTKPREEQYASTYRVVSVLTVLHQDWLNGKEYKCKVSNKALPAPIEKTISKAKGQPREPQVYTLPPSRCELTKNQVSLSCAVKGFYPSDIAVEWESNGQPENNYKTTPPVLDSDGSFFLVSKLTVDKSRWQQGNVFSCSVMHEALHNHYTQKSLSLSPDYKDDDDK
chain: EPKSSDKTHTCPPCPAPELLGGPSVFLFPPKPKDTLMISRTPEVTCVVVDVSHEDPEVKFNWYVDGVEVHNAKTKPREEQYNSTYRVVSVLTVLHQDWLNGKEYKCKVSNKALPAPIEKTISKAKGQPREPQVCTLPPSRDELTKNQVSLWCLVKGFYPSDIAVEWESNGQPENNYKTTPPVLDSDGSFFLYSKLTVDKSRWQQGNVFSCSVMHEALHNRYTQKSLSLSP
light: DIVMTQSPLSLPVTPGEPASISCRSSQSLVHSNRNTYLHWYQQKPGQAPRLLIYKVSNRFSGVPDRFSGSGSGTDFTLKISRVEAEDVGVYYCGQGTQVPYTFGQGTKLEIKRTVAAPSVFIFPPSDEQLKSGTASVVCLLNNFYPREAKVQWKVDNALQSGNSQESVTEQDSKDSTYSLSSTLTLSKADYEKHKVYACEVTHQGLSSPVTKSFNRGEC
notes: one-arm antibody
B2: CE115HA000 N53A (antibody, human IgG1, kappa, L234A L235A, N297A, name in Kabat numbering)
heavy: QVQLVESGGGVVQPGRSLRLSCAASGFTFSNAWMHWVRQAPGKGLEWVAQIKAKSANYATYYAESVKGRFTISRDDSKNSLYLQMNSLKTEDTAVYYCRYVHYGAYYGVDAWGQGTTVTVSSASTKGPSVFPLAPSSKSTSGGTAALGCLVKDYFPEPVTVSWNSGALTSGVHTFPAVLQSSGLYSLSSVVTVPSSSLGTQTYICNVNHKPSNTKVDKKVEPKSCDKTHTCPPCPAPEAAGGPSVFLFPPKPKDTLMISRTPEVTCVVVDVSHEDPEVKFNWYVDGVEVHNAKTKPREEQYASTYRVVSVLTVLHQDWLNGKEYKCKVSNKALPAPIEKTISKAKGQPREPQVYTLPPSRCELTKNQVSLSCAVKGFYPSDIAVEWESNGQPENNYKTTPPVLDSDGSFFLVSKLTVDKSRWQQGNVFSCSVMHEALHNHYTQKSLSLSPDYKDDDDK
chain: EPKSSDKTHTCPPCPAPELLGGPSVFLFPPKPKDTLMISRTPEVTCVVVDVSHEDPEVKFNWYVDGVEVHNAKTKPREEQYNSTYRVVSVLTVLHQDWLNGKEYKCKVSNKALPAPIEKTISKAKGQPREPQVCTLPPSRDELTKNQVSLWCLVKGFYPSDIAVEWESNGQPENNYKTTPPVLDSDGSFFLYSKLTVDKSRWQQGNVFSCSVMHEALHNRYTQKSLSLSP
light: DIVMTQSPLSLPVTPGEPASISCRSSQSLVHSNRNTYLHWYQQKPGQAPRLLIYKVSNRFSGVPDRFSGSGSGTDFTLKISRVEAEDVGVYYCGQGTQVPYTFGQGTKLEIKRTVAAPSVFIFPPSDEQLKSGTASVVCLLNNFYPREAKVQWKVDNALQSGNSQESVTEQDSKDSTYSLSSTLTLSKADYEKHKVYACEVTHQGLSSPVTKSFNRGEC
notes: one-arm antibody
B3: CE115HA000 N53D (antibody, human IgG1, kappa, L234A L235A, N297A, name in Kabat numbering)
heavy: QVQLVESGGGVVQPGRSLRLSCAASGFTFSNAWMHWVRQAPGKGLEWVAQIKAKSDNYATYYAESVKGRFTISRDDSKNSLYLQMNSLKTEDTAVYYCRYVHYGAYYGVDAWGQGTTVTVSSASTKGPSVFPLAPSSKSTSGGTAALGCLVKDYFPEPVTVSWNSGALTSGVHTFPAVLQSSGLYSLSSVVTVPSSSLGTQTYICNVNHKPSNTKVDKKVEPKSCDKTHTCPPCPAPEAAGGPSVFLFPPKPKDTLMISRTPEVTCVVVDVSHEDPEVKFNWYVDGVEVHNAKTKPREEQYASTYRVVSVLTVLHQDWLNGKEYKCKVSNKALPAPIEKTISKAKGQPREPQVYTLPPSRCELTKNQVSLSCAVKGFYPSDIAVEWESNGQPENNYKTTPPVLDSDGSFFLVSKLTVDKSRWQQGNVFSCSVMHEALHNHYTQKSLSLSPDYKDDDDK
chain: EPKSSDKTHTCPPCPAPELLGGPSVFLFPPKPKDTLMISRTPEVTCVVVDVSHEDPEVKFNWYVDGVEVHNAKTKPREEQYNSTYRVVSVLTVLHQDWLNGKEYKCKVSNKALPAPIEKTISKAKGQPREPQVCTLPPSRDELTKNQVSLWCLVKGFYPSDIAVEWESNGQPENNYKTTPPVLDSDGSFFLYSKLTVDKSRWQQGNVFSCSVMHEALHNRYTQKSLSLSP
light: DIVMTQSPLSLPVTPGEPASISCRSSQSLVHSNRNTYLHWYQQKPGQAPRLLIYKVSNRFSGVPDRFSGSGSGTDFTLKISRVEAEDVGVYYCGQGTQVPYTFGQGTKLEIKRTVAAPSVFIFPPSDEQLKSGTASVVCLLNNFYPREAKVQWKVDNALQSGNSQESVTEQDSKDSTYSLSSTLTLSKADYEKHKVYACEVTHQGLSSPVTKSFNRGEC
notes: one-arm antibody
B4: CE115HA000 N53G (antibody, human IgG1, kappa, L234A L235A, N297A, name in Kabat numbering)
heavy: QVQLVESGGGVVQPGRSLRLSCAASGFTFSNAWMHWVRQAPGKGLEWVAQIKAKSGNYATYYAESVKGRFTISRDDSKNSLYLQMNSLKTEDTAVYYCRYVHYGAYYGVDAWGQGTTVTVSSASTKGPSVFPLAPSSKSTSGGTAALGCLVKDYFPEPVTVSWNSGALTSGVHTFPAVLQSSGLYSLSSVVTVPSSSLGTQTYICNVNHKPSNTKVDKKVEPKSCDKTHTCPPCPAPEAAGGPSVFLFPPKPKDTLMISRTPEVTCVVVDVSHEDPEVKFNWYVDGVEVHNAKTKPREEQYASTYRVVSVLTVLHQDWLNGKEYKCKVSNKALPAPIEKTISKAKGQPREPQVYTLPPSRCELTKNQVSLSCAVKGFYPSDIAVEWESNGQPENNYKTTPPVLDSDGSFFLVSKLTVDKSRWQQGNVFSCSVMHEALHNHYTQKSLSLSPDYKDDDDK
chain: EPKSSDKTHTCPPCPAPELLGGPSVFLFPPKPKDTLMISRTPEVTCVVVDVSHEDPEVKFNWYVDGVEVHNAKTKPREEQYNSTYRVVSVLTVLHQDWLNGKEYKCKVSNKALPAPIEKTISKAKGQPREPQVCTLPPSRDELTKNQVSLWCLVKGFYPSDIAVEWESNGQPENNYKTTPPVLDSDGSFFLYSKLTVDKSRWQQGNVFSCSVMHEALHNRYTQKSLSLSP
light: DIVMTQSPLSLPVTPGEPASISCRSSQSLVHSNRNTYLHWYQQKPGQAPRLLIYKVSNRFSGVPDRFSGSGSGTDFTLKISRVEAEDVGVYYCGQGTQVPYTFGQGTKLEIKRTVAAPSVFIFPPSDEQLKSGTASVVCLLNNFYPREAKVQWKVDNALQSGNSQESVTEQDSKDSTYSLSSTLTLSKADYEKHKVYACEVTHQGLSSPVTKSFNRGEC
notes: one-arm antibody
B5: CE115HA000 N53I (antibody, human IgG1, kappa, L234A L235A, N297A, name in Kabat numbering)
heavy: QVQLVESGGGVVQPGRSLRLSCAASGFTFSNAWMHWVRQAPGKGLEWVAQIKAKSINYATYYAESVKGRFTISRDDSKNSLYLQMNSLKTEDTAVYYCRYVHYGAYYGVDAWGQGTTVTVSSASTKGPSVFPLAPSSKSTSGGTAALGCLVKDYFPEPVTVSWNSGALTSGVHTFPAVLQSSGLYSLSSVVTVPSSSLGTQTYICNVNHKPSNTKVDKKVEPKSCDKTHTCPPCPAPEAAGGPSVFLFPPKPKDTLMISRTPEVTCVVVDVSHEDPEVKFNWYVDGVEVHNAKTKPREEQYASTYRVVSVLTVLHQDWLNGKEYKCKVSNKALPAPIEKTISKAKGQPREPQVYTLPPSRCELTKNQVSLSCAVKGFYPSDIAVEWESNGQPENNYKTTPPVLDSDGSFFLVSKLTVDKSRWQQGNVFSCSVMHEALHNHYTQKSLSLSPDYKDDDDK
chain: EPKSSDKTHTCPPCPAPELLGGPSVFLFPPKPKDTLMISRTPEVTCVVVDVSHEDPEVKFNWYVDGVEVHNAKTKPREEQYNSTYRVVSVLTVLHQDWLNGKEYKCKVSNKALPAPIEKTISKAKGQPREPQVCTLPPSRDELTKNQVSLWCLVKGFYPSDIAVEWESNGQPENNYKTTPPVLDSDGSFFLYSKLTVDKSRWQQGNVFSCSVMHEALHNRYTQKSLSLSP
light: DIVMTQSPLSLPVTPGEPASISCRSSQSLVHSNRNTYLHWYQQKPGQAPRLLIYKVSNRFSGVPDRFSGSGSGTDFTLKISRVEAEDVGVYYCGQGTQVPYTFGQGTKLEIKRTVAAPSVFIFPPSDEQLKSGTASVVCLLNNFYPREAKVQWKVDNALQSGNSQESVTEQDSKDSTYSLSSTLTLSKADYEKHKVYACEVTHQGLSSPVTKSFNRGEC
notes: one-arm antibody
B6: CE115HA000 N53H (antibody, human IgG1, kappa, L234A L235A, N297A, name in Kabat numbering)
heavy: QVQLVESGGGVVQPGRSLRLSCAASGFTFSNAWMHWVRQAPGKGLEWVAQIKAKSHNYATYYAESVKGRFTISRDDSKNSLYLQMNSLKTEDTAVYYCRYVHYGAYYGVDAWGQGTTVTVSSASTKGPSVFPLAPSSKSTSGGTAALGCLVKDYFPEPVTVSWNSGALTSGVHTFPAVLQSSGLYSLSSVVTVPSSSLGTQTYICNVNHKPSNTKVDKKVEPKSCDKTHTCPPCPAPEAAGGPSVFLFPPKPKDTLMISRTPEVTCVVVDVSHEDPEVKFNWYVDGVEVHNAKTKPREEQYASTYRVVSVLTVLHQDWLNGKEYKCKVSNKALPAPIEKTISKAKGQPREPQVYTLPPSRCELTKNQVSLSCAVKGFYPSDIAVEWESNGQPENNYKTTPPVLDSDGSFFLVSKLTVDKSRWQQGNVFSCSVMHEALHNHYTQKSLSLSPDYKDDDDK
chain: EPKSSDKTHTCPPCPAPELLGGPSVFLFPPKPKDTLMISRTPEVTCVVVDVSHEDPEVKFNWYVDGVEVHNAKTKPREEQYNSTYRVVSVLTVLHQDWLNGKEYKCKVSNKALPAPIEKTISKAKGQPREPQVCTLPPSRDELTKNQVSLWCLVKGFYPSDIAVEWESNGQPENNYKTTPPVLDSDGSFFLYSKLTVDKSRWQQGNVFSCSVMHEALHNRYTQKSLSLSP
light: DIVMTQSPLSLPVTPGEPASISCRSSQSLVHSNRNTYLHWYQQKPGQAPRLLIYKVSNRFSGVPDRFSGSGSGTDFTLKISRVEAEDVGVYYCGQGTQVPYTFGQGTKLEIKRTVAAPSVFIFPPSDEQLKSGTASVVCLLNNFYPREAKVQWKVDNALQSGNSQESVTEQDSKDSTYSLSSTLTLSKADYEKHKVYACEVTHQGLSSPVTKSFNRGEC
notes: one-arm antibody
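Note: surface plasmon resonance at 25 °C with CD3 epsilon homodimer amine-coupled to a CM4 sensor chip, antibody injected as analyte, HBS-EP+ as running buffer.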

The test deals with T1, CD3 epsilon homodimer protein (UniProt P07766 23-126).
T1 construct: also called CD3 (CD3 epsilon)
T1 sequence (P07766 23-126): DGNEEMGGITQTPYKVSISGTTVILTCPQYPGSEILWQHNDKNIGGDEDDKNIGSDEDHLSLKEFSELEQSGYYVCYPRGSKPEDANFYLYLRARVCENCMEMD
Description: SPR, CD3 epsilon homodimer on chip, one-arm antibody as analyte. (Surface plasmon resonance follows binding to a sensor surface in real time, without labels.)
As to B1, the “KD ratio (KD of CE115HA000/KD of altered form)” value (“KD ratio” for short) was 1.1.

In the case of B2, the “KD ratio” value amounted to 0.55.

As for B3, the “KD ratio” value came to 0.55.

In the case of B4, the “KD ratio” value was found to be 0.95.

As for B5, the “KD ratio” value was 0.57.

B6: the “KD ratio” value is 0.55.
